According to patent US20160159862A1 (PROTAGONIST THERAPEUTICS, published 2016):
Bridge positions count the residues as written; N and C are the ends. Square brackets hold non-standard residues; d marks the D form. Bip = N[C@@H](Cc1ccc(-c2ccccc2)cc1)C(=O)O; 1Nal = N[C@@H](Cc1cccc2ccccc12)C(=O)O; 2Nal = N[C@@H](Cc1ccc2ccccc2c1)C(=O)O; NMeR = CN[C@@H](CCCNC(=N)N)C(=O)O; Tic = O=C(O)[C@@H]1Cc2ccccc2CN1; β3hE = N[C@@H](CCC(=O)O)CC(=O)O; NMeK = CN[C@@H](CCCCN)C(=O)O; Pen = CC(C)(S)[C@H](N)C(=O)O; dNMeK = CN[C@H](CCCCN)C(=O)O

B1: SEQ ID NO 24 (peptide)
peptide: Ac-[Pen][NMeR]SDTL[Pen][1Nal]E[dK]-NH2
modifications: disulfide 1-7 (inferred); also: homodimer via DIG
B2: SEQ ID NO 38 (peptide)
peptide: Ac-[Pen][NMeR]SDTL[Pen][1Nal][dE][dNMeK]-NH2
modifications: disulfide 1-7 (inferred); also: homodimer via DIG linker
B3: SEQ ID NO 150 (peptide)
peptide: Ac-[Pen][NMeR]SDTL[Pen][Bip][b‑H‑E][NMeK]-NH2
modifications: disulfide 1-7 (inferred); also: homodimer via DIG
B4: SEQ ID NO 23 (peptide)
peptide: Ac-[Pen][NMeR]SDTL[Pen][2Nal]Y[dK]-NH2
modifications: disulfide 1-7 (inferred); also: homodimer via DIG
B5: SEQ ID NO 210 (peptide)
peptide: Ac-[Pen][NMeR]SDTL[Pen][2Nal]E[dK]-NH2
modifications: disulfide 1-7 (inferred)
B6: SEQ ID NO 142 (peptide)
peptide: Ac-[Pen][NMeR]SDTL[Pen][1Nal][β3hE][NMeK]-NH2
modifications: disulfide 1-7 (inferred); also: homodimer via DIG
B7: SEQ ID NO 134 (peptide)
peptide: Ac-[Pen][NMeR]SDTL[Pen][Bip]E[dK]-NH2
modifications: disulfide 1-7 (inferred); also: homodimer via DIG
B8: SEQ ID NO 33 (peptide)
peptide: Ac-[Pen][NMeR]SDTL[Pen][2Nal][dE][dK]-NH2
modifications: disulfide 1-7 (inferred); also: homodimer via DIG linker
B9: SEQ ID NO 41 (peptide)
peptide: Ac-[Pen][NMeR]SDTL[Pen][2Nal]E[dNMeK]-NH2
modifications: disulfide 1-7 (inferred); also: homodimer via DIG linker
B10: SEQ ID NO 154 (peptide)
peptide: Ac-[Pen][NMeR]SDTL[Pen][Tic][β3hE]-NH2
modifications: disulfide 1-7 (inferred)
B11: SEQ ID NO 137 (peptide)
peptide: Ac-[Pen][NMeR]SDTL[Pen][2Nal][β3hE][dK]-NH2
modifications: disulfide 1-7 (inferred); also: homodimer via DIG
B12: SEQ ID NO 44 (peptide)
peptide: Ac-[Pen][NMeR]SDTL[Pen][1Nal]E[dNMeK]-NH2
modifications: disulfide 1-7 (inferred); also: homodimer via DIG linker
B13: SEQ ID NO 212 (peptide)
peptide: Ac-[Pen][NMeR]SDTL[Pen][2Nal]E[dK]-NH2
modifications: disulfide 1-7 (inferred); also: homodimer via DIG
B14: SEQ ID NO 18 (peptide)
peptide: Ac-[Pen][NMeR]SDTL[Pen][1Nal]E[dNMeK]-NH2
modifications: disulfide 1-7
SMILES: CC(=O)N[C@@H]1C(=O)N(C)[C@@H](CCCNC(=N)N)C(=O)N[C@@H](CO)C(=O)N[C@@H](CC(=O)O)C(=O)N[C@@H]([C@@H](C)O)C(=O)N[C@@H](CC(C)C)C(=O)N[C@H](C(=O)N[C@@H](Cc2cccc3ccccc23)C(=O)N[C@@H](CCC(=O)O)C(=O)N(C)[C@H](CCCCN)C(N)=O)C(C)(C)SSC1(C)C
B15: SEQ ID NO 32 (peptide)
peptide: Ac-[Pen][NMeR]SDTL[Pen][1Nal][dE][dK]-NH2
modifications: disulfide 1-7 (inferred); also: homodimer via DIG linker
B16: SEQ ID NO 155 (peptide)
peptide: Ac-[Pen][NMeR]SDTL[Pen][2Nal][b‑H‑E]-NH2
modifications: disulfide 1-7 (inferred)
B17: SEQ ID NO 13 (peptide)
peptide: Ac-[Pen][NMeR]SDTL[Pen][2Nal][dE][dNMeK]-NH2
modifications: disulfide 1-7 (inferred)
B18: SEQ ID NO 86 (peptide)
peptide: Ac-[Pen][NMeR]SDTL[Pen]WE(OMe)[dK]-NH2
modifications: disulfide 1-7 (inferred); also: homodimer linked by DIG
B19: biotin-labeled vedolizumab (antibody, INN chains, looked up, V domains shown)
VH: QVQLVQSGAEVKKPGASVKVSCKGSGYTFTSYWMHWVRQAPGQRLEWIGEIDPSESNTNYNQKFKGRVTLTVDISASTAYMELSSLRSEDTAVYYCARGGYDGWDYAIDYWGQGTLVTVSS
VL: DVVMTQSPLSLPVTPGEPASISCRSSQSLAKSYGNTYLSWYLQKPGQSPQLLIYGISNRFSGVPDRFSGSGSGTDFTLKISRVEAEDVGVYYCLQGTHQPYTFGQGTKVEIKR
modifications: biotin label

Target: α4β1 (R&D Systems #5668-A4) (UniProt P13612)
Test: α4β1-VCAM competition ELISA

Binder	IC50 [nM]
B1	> 100
B2	> 100
B3	> 1000
B4	> 100
B5	200
B6	> 500
B7	> 100
B8	> 100
B9	> 100
B10	> 1000
B11	> 1000
B12	> 100
B13	70
B14	> 500
B15	> 100
B16	> 1000

Target: rh integrin α4β7 (R&D Systems #5397-A30) (human) (UniProt P13612)
Test: α4β7-MAdCAM competition ELISA

Binder	IC50 [nM]
B1	< 10
B2	< 10
B3	< 10
B5	11
B6	< 10
B7	< 10
B8	< 10
B9	< 10
B11	< 10
B12	< 10
B13	2
B14	> 10
B15	< 10
B17	> 10

Target: T1, α4β7 integrin on human cells (human, UniProt P13612 34-1032; P26010 20-798)
Test: cell-based or functional assay

Binder	α4β7 cell (Hu) IC50 [nM]	PBMC IC50 [nM]
B1	≤ 10	
B2	≤ 10	
B3	≤ 10	
B4	≤ 10	
B6	≤ 10	> 50
B7	≤ 10	
B8	> 10	
B9	≤ 10	
B10	> 100	
B11	≤ 10	
B12	≤ 10	
B15	> 10	
B18	≤ 10	
B17	> 100	
B16	> 25	

Target: T2, α4β7 integrin on mouse TK1 cells (mouse, UniProt Q00651 41-1039; P26011 20-806)
T2 sequence (Q00651 41-1039, chain 1 of 2): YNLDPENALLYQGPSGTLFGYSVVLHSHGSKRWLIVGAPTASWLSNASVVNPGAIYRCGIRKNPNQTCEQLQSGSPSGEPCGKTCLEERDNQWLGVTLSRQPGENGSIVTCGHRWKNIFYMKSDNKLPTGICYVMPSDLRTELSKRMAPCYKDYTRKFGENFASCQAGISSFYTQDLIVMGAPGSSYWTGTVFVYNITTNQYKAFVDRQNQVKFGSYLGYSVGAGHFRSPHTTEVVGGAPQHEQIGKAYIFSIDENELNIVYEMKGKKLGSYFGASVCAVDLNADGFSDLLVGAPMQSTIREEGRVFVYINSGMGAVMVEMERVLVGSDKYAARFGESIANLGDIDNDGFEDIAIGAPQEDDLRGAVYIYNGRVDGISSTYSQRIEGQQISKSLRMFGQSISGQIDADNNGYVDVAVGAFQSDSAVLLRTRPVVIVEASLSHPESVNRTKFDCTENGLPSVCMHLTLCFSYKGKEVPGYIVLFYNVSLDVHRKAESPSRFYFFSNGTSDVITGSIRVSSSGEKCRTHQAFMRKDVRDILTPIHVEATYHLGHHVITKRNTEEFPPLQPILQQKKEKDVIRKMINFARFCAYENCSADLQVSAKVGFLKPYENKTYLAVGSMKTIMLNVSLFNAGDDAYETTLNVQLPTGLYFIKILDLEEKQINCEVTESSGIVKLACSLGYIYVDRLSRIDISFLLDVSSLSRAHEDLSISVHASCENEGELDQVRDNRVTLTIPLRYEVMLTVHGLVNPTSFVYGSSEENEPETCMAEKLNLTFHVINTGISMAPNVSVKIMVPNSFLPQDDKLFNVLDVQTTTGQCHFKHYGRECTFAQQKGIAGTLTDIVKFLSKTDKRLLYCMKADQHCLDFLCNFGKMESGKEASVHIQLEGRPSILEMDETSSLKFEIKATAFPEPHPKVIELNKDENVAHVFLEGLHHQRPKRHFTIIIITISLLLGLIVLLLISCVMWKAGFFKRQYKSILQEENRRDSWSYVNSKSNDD
T2 sequence (P26011 20-806, chain 2 of 2): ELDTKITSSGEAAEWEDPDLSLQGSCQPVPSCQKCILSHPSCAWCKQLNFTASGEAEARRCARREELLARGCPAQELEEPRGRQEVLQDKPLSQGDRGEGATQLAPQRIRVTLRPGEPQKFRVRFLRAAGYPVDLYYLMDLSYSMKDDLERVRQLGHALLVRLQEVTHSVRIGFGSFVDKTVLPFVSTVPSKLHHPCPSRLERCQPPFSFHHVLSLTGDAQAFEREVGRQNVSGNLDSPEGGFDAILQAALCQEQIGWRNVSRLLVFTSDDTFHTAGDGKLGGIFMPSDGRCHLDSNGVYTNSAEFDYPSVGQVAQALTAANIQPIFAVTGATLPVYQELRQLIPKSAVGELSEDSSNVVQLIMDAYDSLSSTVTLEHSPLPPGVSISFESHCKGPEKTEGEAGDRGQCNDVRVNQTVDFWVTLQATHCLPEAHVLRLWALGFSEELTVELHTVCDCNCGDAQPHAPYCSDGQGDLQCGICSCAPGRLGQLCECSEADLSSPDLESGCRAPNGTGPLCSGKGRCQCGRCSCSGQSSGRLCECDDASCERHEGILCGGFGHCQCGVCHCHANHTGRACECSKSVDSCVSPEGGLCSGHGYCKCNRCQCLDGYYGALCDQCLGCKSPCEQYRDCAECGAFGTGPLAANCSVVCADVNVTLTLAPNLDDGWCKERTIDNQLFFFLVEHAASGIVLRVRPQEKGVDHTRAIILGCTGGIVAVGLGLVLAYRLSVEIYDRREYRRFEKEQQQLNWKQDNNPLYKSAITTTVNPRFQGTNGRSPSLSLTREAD
Test: cell-based or functional assay

Binder	α4β7 cell(Mu) IC50 [nM]
B3	≤ 10
B10	> 1000
B12	≤ 10
B18	≤ 10
B16	> 25

Target: T3, α4β1 integrin on human cells (human, UniProt P13612 34-1032; P05556 21-798)
Test: cell-based or functional assay

Binder	α4β1 cell IC50 [nM]
B8	> 100000

Target: T1, α4β7 integrin on human cells
Test: cell-based or functional assay
Remark: another data set of the same source

Binder	Cell Adhesion PBMC IC50 [nM]	Cell Adhesion α4β7 IC50 [nM]
B5	517	40
B13		2.5

Target: T2, α4β7 integrin on mouse TK1 cells
Test: cell-based or functional assay
Remark: another data set of the same source

Binder	Cell Adhesion α4β7 Mouse IC50 [nM]
B5	60
B13	2.5

Target: T3, α4β1 integrin on human cells
Test: cell-based or functional assay
Remark: another data set of the same source

Binder	Cell Adhesion α4β1 IC50 [nM]
B5	> 100000
B13	> 100000

Target: α4β7 integrin on human cells (human) (UniProt P13612)
Test: FACS, human whole blood, 1 mM MnCl2, Basophils

Binder	Percent positive staining [%]
B19	86

Target: α4β7 integrin on human cells (human) (UniProt P13612)
Test: FACS, human whole blood, 1 mM MnCl2, Monocytes

Binder	Percent positive staining [%]
B19	7

Target: α4β7 integrin on human cells (human) (UniProt P13612)
Test: FACS, human whole blood, 1 mM MnCl2, Eosinophils

Binder	Percent positive staining [%]
B19	91

Target: α4β7 integrin on human cells (human) (UniProt P13612)
Test: FACS, human whole blood, 1 mM MnCl2, Neutrophils

Binder	Percent positive staining [%]
B19	0.45

Target: α4β7 integrin on human cells (human) (UniProt P13612)
Test: FACS, human whole blood, 1 mM MnCl2, CD19+ B cells

Binder	Percent positive staining [%]
B19	85

Target: α4β7 integrin on human cells (human) (UniProt P13612)
Test: FACS, human whole blood, 1 mM MnCl2, CD4 naïve T cells

Binder	Percent positive staining [%]
B19	55

Target: α4β7 integrin on human cells (human) (UniProt P13612)
Test: FACS, human whole blood, 1 mM MnCl2, CD8 naïve T cells

Binder	Percent positive staining [%]
B19	53

Target: α4β7 integrin on human cells (human) (UniProt P13612)
Test: FACS, human whole blood, 1 mM MnCl2, CD4 memory T cells

Binder	Percent positive staining [%]
B19	22

Target: α4β7 integrin on human cells (human) (UniProt P13612)
Test: FACS, human whole blood, 1 mM MnCl2, CD8 memory T cells

Binder	Percent positive staining [%]
B19	36

Target: α4β7 integrin on human cells (human) (UniProt P13612)
Test: FACS, human whole blood, 1 mM MnCl2, NK cells CD16+ 56+

Binder	Percent positive staining [%]
B19	42

Target: soluble α4β7 integrin (Homo sapiens (Human)) (UniProt P13612)
Test: SPR, antibody on streptavidin chip, soluble α4β7 as analyte

Binder	Half-life for dissociation [min]	Kd [nM]	koff [s⁻¹]	kon [M⁻¹ s⁻¹]
B19	43	59.5	0.000266	4470
